According to article PMC7158967, “Comparative evaluation of ^68Ga-labelled TATEs: the impact of chelators on imaging” (EJNMMI Research, 2020):
Where two headings read alike, the source gives them in different places.

How the values were obtained:
[1] = cited from earlier work
[2] = Biodistribution in AR42J tumour-bearing nude mice; settings: mouse, in vivo
Experimental: (§1) Tumour cells were subcutaneously injected into the left forelimb of each nude mouse. Biodistribution and imaging studies were conducted when the tumour volume reached at least 1.0 × 1.0 × 1.0 cm^3.

healthy volunteers = test: clinical; settings: human, in vivo
Experimental: (§2) Twenty-two healthy volunteers gave informed consent and agreed to participate in the study. […] Each patient was injected with an average activity of 1.9 MBq/kg. The timing of image acquisition ranged from 30 to 45 min after injection (3 min/bed position). The PET image was attenuated and then reconstructed using the iterative reconstruction algorithm implemented.

clinical = settings: human, in vivo, total radioactivity
Experimental: as §2

[3] = tested on: AR42J tumour-bearing mice; test: Micro-PET/CT imaging of AR42J tumour-bearing nude mice; settings: mouse, in vivo
Experimental: as §1
(§3) Six (3 female and 3 male) mice with AR42J tumour xenografts (15–20 g) were used in the imaging study. All tumour-bearing mice were anaesthetized by intranasal inhalation of isoflurane. […] Images were acquired and reconstructed using micro-PET/CT at 30 min and 2 h after intravenous injection.

[4] = as above; settings: both sexes, nude, mouse, in vivo, iv, 2.96 MBq, total radioactivity
Experimental: as §1, §3

[5] = Lipid-water partition (log Po/w), octanol water system; format: physicochemical
Experimental: The lipid-water partition (logP) of ^68Ga-labelled complexes was determined in the octanol water system by following the procedure mentioned below. In brief, 490 μL of ultrapure water was added to each of three centrifuge tubes containing 0.5 mL of saturated n-octanol and then combined with 10 μL (1.85 MBq/0.05 mCi) of freshly prepared radiolabelled complexes by ultrasonication (3 min). The centrifuge tube was allowed to stand for approximately 1 min for the liquid to become stratified. The upper and lower liquids were defined as groups A (A1, A2, A3) and B (B1, B2, B3), accounting for the organic and aqueous phases, respectively. Then, 0.1 mL was retrieved from each of the 6 sections. The radioactivity (CPM) of both phases was determined using a gamma counter, and the lipid-water partition coefficient was calculated as follows: logP = log (A-background)/(B-background). The average of three tubes was recorded as the logP.

[6] = format: in vitro ADME; settings: human
Experimental: In vitro serum binding studies for both ^68Ga-labelled NOTA-TATE and DOTA-TATE were carried out by following a generalized procedure summarized below. One millilitre of fresh anticoagulated (heparinized) human plasma was prepared. Freshly labelled compound (3.7 MBq, 0.1 mCi) was added to three centrifuge tubes, each containing 0.1 mL of human plasma. After incubation at 37 °C for 2 h, 1 mL of ice-cold methanol was added to each tube. The mixtures were separated by centrifugation (5 min, 3000 rpm) to collect the supernatant, which was repeated three times. A gamma counter was then used to measure the radioactivity of the supernatant (A) and the precipitate (B) in counts per minute (CPM); the plasma-protein binding rate was calculated as PPB = B/(A + B)100%, and the average of three tubes was recorded.

SSTR2 = tested on: SSTR2; parameters: method as in PMID 28864614; settings: read-out: half inhibitory concentration (IC50) on SSTR2; cited from earlier work

In the case of `O=C(O)CN1CCN(CC(=O)O)CCN(CC(=O)O)CCN(CC(=O)O)CC1` [DOTA, 1,4,7,10-tetraazacyclododecane-1,4,7,10-tetraacetic acid], the “log stability constant of the ^68Ga complex” value ([1]; DOTA ^68Ga complex, pseudo-octahedral geometry) is given as 21.33.

`C[C@@H](O)[C@H](NC(=O)[C@@H]1CSSC[C@H](NC(=O)[C@@H](Cc2ccccc2)NC(=O)CN2CCN(CC(=O)O)CCN(CC(=O)O)CCN(CC(=O)O)CC2)C(=O)N[C@@H](Cc2ccc(O)cc2)C(=O)N[C@H](Cc2c[nH]c3ccccc23)C(=O)N[C@@H](CCCCN)C(=O)N[C@@H]([C@@H](C)O)C(=O)N1)C(=O)O` [^68Ga-DOTA-TATE, metal not drawn] gave a tissue uptake at 0.25 h ([2]; %ID/g Blood) of 3.03 ± 1.96 %ID/g, a tissue uptake at 1 h ([2]; %ID/g Blood) of 0.35 ± 0.2 %ID/g and a tissue uptake at 2 h ([2]; %ID/g Blood) of 0.05 ± 0.02 %ID/g. The tissue uptake at 0.25 h ([2]; %ID/g Gallbladder) was 1.47 ± 0.62 %ID/g, the tissue uptake at 0.25 h ([2]; %ID/g Intestines) was 1.56 ± 1.47 %ID/g and the tissue uptake at 0.5 h ([2]; %ID/g Intestines) was 1.58 ± 1.77 %ID/g. It also gave a tissue uptake at 2 h ([2]; %ID/g Intestines) of 0.23 ± 0.15 %ID/g, a tissue uptake at 0.25 h ([2]; %ID/g Kidney) of 10.3 ± 8.89 %ID/g and a tissue uptake at 0.5 h ([2]; %ID/g Kidney) of 8.12 ± 2.71 %ID/g. It also gave a tissue uptake at 1 h ([2]; %ID/g Kidney) of 2.82 ± 2.54 %ID/g, a tissue uptake at 2 h ([2]; %ID/g Kidney) of 1.49 ± 0.57 %ID/g and a tissue uptake at 0.25 h ([2]; %ID/g Liver) of 1.27 ± 0.77 %ID/g. It also gave a tissue uptake at 0.5 h ([2]; %ID/g Liver) of 0.61 ± 0.35 %ID/g, a tissue uptake at 1 h ([2]; %ID/g Liver) of 0.34 ± 0.25 %ID/g and a tissue uptake at 2 h ([2]; %ID/g Liver) of 0.08 ± 0.07 %ID/g. For the same molecule, the tissue uptake at 0.5 h ([2]; %ID/g Lungs) was 2.86 ± 1.47 %ID/g, the tissue uptake at 1 h ([2]; %ID/g Lungs) was 4.62 ± 3.42 %ID/g and the tissue uptake at 2 h ([2]; %ID/g Lungs) was 0.98 ± 0.22 %ID/g. The tissue uptake at 0.25 h ([2]; %ID/g Muscle) was 1.18 ± 1.26 %ID/g, the tissue uptake at 2 h ([2]; %ID/g Muscle) was 0.04 ± 0.01 %ID/g and the tissue uptake at 0.25 h ([2]; %ID/g Skeleton) was 1.94 ± 0.81 %ID/g. For the same molecule, the tissue uptake at 0.5 h ([2]; %ID/g Skeleton) was 1.1 ± 0.63 %ID/g, the tissue uptake at 1 h ([2]; %ID/g Skeleton) was 0.8 ± 0.73 %ID/g and the tissue uptake at 2 h ([2]; %ID/g Skeleton) was 0.17 ± 0.06 %ID/g. For the same molecule, the tissue uptake at 0.25 h ([2]; %ID/g Spleen) was 3.84 ± 4.03 %ID/g, the tissue uptake at 0.5 h ([2]; %ID/g Spleen) was 1.48 ± 0.84 %ID/g and the tissue uptake at 1 h ([2]; %ID/g Spleen) was 1.92 ± 1.75 %ID/g. It also gave a tissue uptake at 2 h ([2]; %ID/g Spleen) of 0.21 ± 0.19 %ID/g, a tissue uptake at 0.25 h ([2]; %ID/g Stomach) of 4.24 ± 2.66 %ID/g and a tissue uptake at 0.5 h ([2]; %ID/g Stomach) of 0.98 ± 0.49 %ID/g. For the same molecule, the tissue uptake at 1 h ([2]; %ID/g Stomach) was 4.26 ± 2.58 %ID/g, the tissue uptake at 0.5 h ([2]; %ID/g Tumour) was 3.62 ± 1.94 %ID/g and the tissue uptake at 1 h ([2]; %ID/g Tumour) was 3.14 ± 2.07 %ID/g. For the same molecule, the tissue uptake at 2 h ([2]; %ID/g Tumour) was 2.3 ± 1.34 %ID/g, the “SUVmax Blood pool, range” value (healthy volunteers) was 0.6~1.4 and the “SUVmax Bone marrow, range” value (healthy volunteers) was 0.5~1.3. The “SUVmax Kidneys, range” value (healthy volunteers) was 11.2~17.8, the “SUVmax Large bowel, range” value (healthy volunteers) was 1.6~3.7 and the “SUVmax Lungs, range” value (healthy volunteers) was 0.5~1.3. The “SUVmax Palatine tonsil, range” value (healthy volunteers) was 1.2~4.1, the “SUVmax Parotid gland, range” value (healthy volunteers) was 1.9~5.4 and the “SUVmax Pituitary gland, range” value (healthy volunteers) was 2.4~7.9. For the same molecule, the “SUVmax Small bowel, range” value (healthy volunteers) was 2.2~4.9, the “SUVmax Spleen, range” value (healthy volunteers) was 20.1~33.5 and the “SUVmax Stomach, range” value (healthy volunteers) was 3.1~8.3. The “SUVmax Submandibular, range” value (healthy volunteers) was 1.7~5.7, the “SUVmax Thymus, range” value (healthy volunteers) was 0.7~1.5 and the “SUVmax kidneys, single value” (healthy volunteers) was 17.8. For the same molecule, the “SUVmax lung tissue, single value” (healthy volunteers) was 1.3, the “SUVmax pituitary gland, single value” (healthy volunteers) was 7.9 and the “SUVmax spleen, single value” (healthy volunteers) was 33.5. For the same molecule, the “SUVmax stomach wall, single value” (healthy volunteers) was 8.3, the “radioactivity in the gallbladder” value (healthy volunteers) was “No radioactivity was seen” and the “uptake in the brain” value (healthy volunteers) was “not taken up in the brain”. For the same molecule, the SUV (clinical; both sexes, 1.9 MBq/kg, SUVmax Adrenals, average) was 15.2 SUV, the SUV (clinical; both sexes, 1.9 MBq/kg, SUVmax Blood pool, average) was 0.9 SUV and the SUV (clinical; both sexes, 1.9 MBq/kg, SUVmax Bone marrow, average) was 0.8 SUV. For the same molecule, the SUV (clinical; both sexes, 1.9 MBq/kg, SUVmax Kidneys, average) was 14.5 SUV, the SUV (clinical; both sexes, 1.9 MBq/kg, SUVmax Large bowel, average) was 2.2 SUV and the SUV (clinical; both sexes, 1.9 MBq/kg, SUVmax Liver, average) was 10.1 SUV. It also gave an SUV (clinical; both sexes, 1.9 MBq/kg, SUVmax Lungs, average) of 0.8 SUV, an SUV (clinical; both sexes, 1.9 MBq/kg, SUVmax Lymph nodes, average) of 1.1 SUV and an SUV (clinical; both sexes, 1.9 MBq/kg, SUVmax Palatine tonsil, average) of 2.6 SUV. For the same molecule, the SUV (clinical; both sexes, 1.9 MBq/kg, SUVmax Pancreas, average) was 6.2 SUV, the SUV (clinical; both sexes, 1.9 MBq/kg, SUVmax Small bowel, average) was 3.4 SUV and the SUV (clinical; both sexes, 1.9 MBq/kg, SUVmax Spleen, average) was 26.9 SUV. The SUV (clinical; both sexes, 1.9 MBq/kg, SUVmax Stomach, average) was 6.1 SUV, the SUV (clinical; both sexes, 1.9 MBq/kg, SUVmax Submandibular, average) was 3.4 SUV and the SUV (clinical; both sexes, 1.9 MBq/kg, SUVmax Thymus, average) was 1.2 SUV. For the same molecule, the SUV (clinical; both sexes, iv, 1.9 MBq/kg, SUVmax Breast, average) was 0.6 SUV, the SUV (clinical; iv, 2.52 mCi, SUVmax kidney, single volunteer) was 13.9 SUV and the SUV (clinical; iv, 2.52 mCi, SUVmax liver, single volunteer) was 9.4 SUV. For the same molecule, the SUV (clinical; iv, 2.52 mCi, SUVmax pituitary, single volunteer) was 7.74 SUV, the SUV (clinical; iv, 2.52 mCi, SUVmax spleen, single volunteer) was 25.5 SUV and the SUV (clinical; iv, 2.8 mCi, SUVmax liver, single volunteer) was 7.8 SUV. For the same molecule, the SUV (clinical; iv, 2.8 mCi, SUVmax spleen, single volunteer) was 16.3 SUV, the “gallbladder radioactivity on micro-PET/CT” value [3] was “minimal gallbladder activity” and the SUV at 0.5 h [4] was 2.87 SUV. The SUV at 2 h [4] was 1.83 SUV, the “log Po/w (partition coefficient)” value [5] was “− 2.72 ± 0.16” and the fraction unbound [6] was 0.694. The IC50 (SSTR2) was […].

In the case of `O=C(O)CN1CCN(CC(=O)O)CCN(CC(=O)O)CC1` [NOTA, 1,4,7-triazacyclononane-1,4,7-triacetic acid], the “log stability constant of the ^68Ga complex” value ([1]; NOTA ^68Ga complex, octahedral) is given as 30.98.
